From patent US20060251650A1 (CHILDREN S MEDICAL CENTER, published 2006)

How the values were obtained:
KDR = biological target: T1, KDR (UniProt P35968 20-1356, limits assumed); assay: 125I-collapsin-1 binding to PAE/KDR cells
T1 construct: whole, on cells; also called KDR/Flk-1

[1] = biological target: T2, Human VEGF165R/NP-1 (neuropilin-1) (human, UniProt O14786 22-923); assay: 125I-VEGF121 binding and chemical cross-linking to PAE/NP-1 cells, SDS-PAGE and autoradiography, 1 µg/ml heparin
T2 construct: Expressed from the human cDNA in PAE cells (PAE/NP-1, PAE/KDR/NP-1) and COS-7 cells; also called clone A2
Text: The cells were lysed and proteins were resolved by 6% SDS-PAGE.

[2] = biological target: T2, Human VEGF165R/NP-1 (neuropilin-1); assay: cell-based or functional assay
[3] = biological target: T3, Rat neuropilin-1 on AT3.1 Dunning rat prostate carcinoma cells (rat, UniProt Q9QWJ9 22-922); assay: 125I-VEGF165 cross-linking to AT3.1 rat prostate carcinoma cells
T3 construct: whole, on cells; also called VEGF165R/NP-1 (AT3.1 cells)

[4] = biological target: T2, Human VEGF165R/NP-1 (neuropilin-1); assay: Scatchard analysis (LIGAND program) of 125I-VEGF165 binding to PAE/NP-1 cells
[5] = biological target: T4, Human NP-2 (neuropilin-2) (human, UniProt O60462 21-931); assay: expression cloning: COS-7 cells transfected with single cDNA clones, screened for 125I-VEGF165 binding; seven positive clones, of which this one is NP-2
T4 construct: The open reading frame has 931 amino acids
T4 sequence: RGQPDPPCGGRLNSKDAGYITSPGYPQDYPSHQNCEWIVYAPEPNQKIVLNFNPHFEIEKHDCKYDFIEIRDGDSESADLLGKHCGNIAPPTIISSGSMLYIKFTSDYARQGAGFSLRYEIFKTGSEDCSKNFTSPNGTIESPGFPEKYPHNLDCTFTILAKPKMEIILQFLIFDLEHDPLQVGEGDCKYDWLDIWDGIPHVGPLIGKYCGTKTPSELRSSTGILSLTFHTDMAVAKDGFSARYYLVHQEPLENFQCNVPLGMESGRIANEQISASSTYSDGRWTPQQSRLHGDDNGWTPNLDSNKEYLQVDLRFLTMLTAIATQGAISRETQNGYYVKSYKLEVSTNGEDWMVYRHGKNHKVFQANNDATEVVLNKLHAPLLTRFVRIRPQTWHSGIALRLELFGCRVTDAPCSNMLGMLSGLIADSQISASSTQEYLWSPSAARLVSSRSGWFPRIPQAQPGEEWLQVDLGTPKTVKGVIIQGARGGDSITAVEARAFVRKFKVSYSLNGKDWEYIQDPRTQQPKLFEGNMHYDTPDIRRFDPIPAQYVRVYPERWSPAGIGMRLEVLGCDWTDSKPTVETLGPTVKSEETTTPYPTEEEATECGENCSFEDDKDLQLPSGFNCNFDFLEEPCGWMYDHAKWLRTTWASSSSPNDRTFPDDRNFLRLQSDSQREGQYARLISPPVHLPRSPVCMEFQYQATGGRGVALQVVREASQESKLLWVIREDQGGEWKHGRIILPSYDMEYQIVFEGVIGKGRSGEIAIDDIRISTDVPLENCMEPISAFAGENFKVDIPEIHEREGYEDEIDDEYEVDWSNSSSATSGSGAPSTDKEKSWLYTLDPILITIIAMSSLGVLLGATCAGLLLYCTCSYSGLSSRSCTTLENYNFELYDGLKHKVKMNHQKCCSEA

T1 sequence (P35968 20-1356 limits assumed): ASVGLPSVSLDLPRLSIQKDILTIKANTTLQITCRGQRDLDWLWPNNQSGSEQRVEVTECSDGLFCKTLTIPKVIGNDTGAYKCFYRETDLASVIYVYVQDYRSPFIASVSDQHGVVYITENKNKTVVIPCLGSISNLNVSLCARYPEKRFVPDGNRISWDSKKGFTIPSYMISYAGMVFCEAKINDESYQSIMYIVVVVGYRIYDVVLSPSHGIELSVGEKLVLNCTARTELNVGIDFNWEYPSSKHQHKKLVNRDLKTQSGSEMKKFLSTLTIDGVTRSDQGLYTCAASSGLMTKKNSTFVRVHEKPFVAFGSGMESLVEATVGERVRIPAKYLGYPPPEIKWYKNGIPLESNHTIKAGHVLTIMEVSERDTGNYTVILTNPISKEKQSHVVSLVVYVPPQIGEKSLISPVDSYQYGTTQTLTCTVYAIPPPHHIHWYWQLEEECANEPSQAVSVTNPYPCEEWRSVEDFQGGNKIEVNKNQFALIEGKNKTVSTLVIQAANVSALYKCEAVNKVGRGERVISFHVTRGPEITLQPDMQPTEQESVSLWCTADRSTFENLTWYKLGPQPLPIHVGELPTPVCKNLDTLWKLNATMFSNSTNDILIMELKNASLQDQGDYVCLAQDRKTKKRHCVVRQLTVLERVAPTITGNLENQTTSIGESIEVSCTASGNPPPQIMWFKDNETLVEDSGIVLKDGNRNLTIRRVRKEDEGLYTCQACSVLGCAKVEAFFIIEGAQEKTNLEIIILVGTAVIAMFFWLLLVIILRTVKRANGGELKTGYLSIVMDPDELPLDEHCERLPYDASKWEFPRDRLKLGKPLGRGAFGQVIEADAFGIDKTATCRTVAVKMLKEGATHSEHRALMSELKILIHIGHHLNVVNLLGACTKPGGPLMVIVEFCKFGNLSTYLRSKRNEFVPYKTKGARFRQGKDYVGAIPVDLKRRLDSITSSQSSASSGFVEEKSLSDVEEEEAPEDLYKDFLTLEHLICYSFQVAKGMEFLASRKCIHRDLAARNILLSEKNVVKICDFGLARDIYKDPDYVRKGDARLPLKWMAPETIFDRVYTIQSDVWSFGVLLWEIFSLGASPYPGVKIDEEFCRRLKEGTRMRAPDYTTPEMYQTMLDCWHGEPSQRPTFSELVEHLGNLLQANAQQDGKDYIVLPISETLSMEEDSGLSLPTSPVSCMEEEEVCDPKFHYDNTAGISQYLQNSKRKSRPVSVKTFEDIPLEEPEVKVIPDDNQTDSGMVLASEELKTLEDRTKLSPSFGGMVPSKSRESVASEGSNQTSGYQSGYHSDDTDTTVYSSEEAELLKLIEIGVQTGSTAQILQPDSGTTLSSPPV

B1: Recombinant chick collapsin-1 (semaphorin III) (ligand, UniProt Q90607 23-772, looked up)
chain: QHVKNNVPRLKLSYKEMLESNNIVNFNGLANSSSYHTFLLDEERSRLYVGAKDHIFSFNLVNIKEYQKIVWPVSHSRRDECKWAGKDILRECANFIKVLKTYNQTHLYACGTGAFHPMCTYIEVGSHPEDNIFRMEDSHFENGRGKSPYDPKLLTASLLVDGELYSGTAADFMGRDFAIFRTLGHHHPIRTEQHDSRWLNDPRFISAHLIPESDNPEDDKIYFFFRENAIDGEHTGKATHARIGQICKNDFGGHRSLVNKWTTFLKARLICSVPGPNGIDTHFDELQDVFLMNSKDPKNPIVYGVFTTSSNIFKGSAVCMYSMTDVRRVFLGPYAHRDGPNYQWVPYQGRVPYPRPGTCPSKTFGGFDSTKDLPDEVITFARSHPAMYNPVFPINSRPIMIKTDVDYQFTQIVVDRVDAEDGQYDVMFIGTDIGTVLKVVSIPKETWHELEEVLLEEMTVFREPTVISAMKISTKQQQLYIGSATGVSQLPLHRCDVYGKACAECCLARDPYCAWDGSSCSRYFPTAKRRTRRQDIRNGDPLTHCSDLQHHDNPSGQTLEEKIIYGVENSSTFLECSPKSQRAIVYWQFQKQNDDHKVEIKVDDRMIRTEQGLLLRSLQRRDSGIYFCHAVEHGFIQTLLKVTLEVIDTDHLEELLHKEEDADASKTKDATNSMTPSQKIWYRDFMQLINHPNLNTMDEFCEQVWKRDRKQRRQRPANAQVNTNKWKHLQENKKGRNRRTHEFERAPRSV
modifications: 125I-labelled in the binding studies
B1: no binding (KDR).

B2: Human recombinant VEGF121 (ligand, UniProt P15692-9 27-147, looked up)
chain: APMAEGGGQNHHEVVKFMDVYQRSYCHPIETLVDIFQEYPDEIEYIFKPSCVPLMRCGGCCNDEGLECVPTEESNITMQIMRIKPHQGQHIGEMSFLQHNKCECRPKKDRARQEKCDKPRR
modifications: radio-iodinated (125I) using IODO-BEADS in the cross-linking experiments
notes: mature
B2: no binding (tested: 10 ng/ml) [1].

B3: Human recombinant VEGF165 (ligand, UniProt P15692-4 27-191, looked up)
chain: APMAEGGGQNHHEVVKFMDVYQRSYCHPIETLVDIFQEYPDEIEYIFKPSCVPLMRCGGCCNDEGLECVPTEESNITMQIMRIKPHQGQHIGEMSFLQHNKCECRPKKDRARQENPCGPCSERRKHLFVQDPQTCKCSCKNTDSRCKARQLELNERTCRCDKPRR
modifications: radio-iodinated (125I) using IODO-BEADS in the binding and cross-linking experiments
notes: mature
For B3, the “stimulation of 231 breast carcinoma cell motility, Boyden chamber, VEGF165 50 ng/ml” value [2] was 2 fold, the binding result [3] was “binds” and the Kd [4] was roughly 0.32 nM. B3: binds [5].
